Square brackets hold non-standard residues; d marks the D form. Nle = CCCC[C@H](N)C(=O)O
Key:
Assay in all cases: cell-based or functional assay
SMYD2 = SMYD2 (UniProt Q9NRG4 1-433)
EZH1 = EZH1 (UniProt Q92800 1-747)
EZH2 = EZH2 (UniProt Q15910 1-746)
G9a = G9a (UniProt Q96KQ7 1-1210)
SETDB1 = SETDB1 (UniProt Q15047 1-1291)
PRMT6 = PRMT6 (UniProt Q96LA8 1-375)

Measured: Biochemical IC50 (enzymatic inhibition, panel of HMT enzymes)

Sequence of G9a (Q96KQ7 whole entry): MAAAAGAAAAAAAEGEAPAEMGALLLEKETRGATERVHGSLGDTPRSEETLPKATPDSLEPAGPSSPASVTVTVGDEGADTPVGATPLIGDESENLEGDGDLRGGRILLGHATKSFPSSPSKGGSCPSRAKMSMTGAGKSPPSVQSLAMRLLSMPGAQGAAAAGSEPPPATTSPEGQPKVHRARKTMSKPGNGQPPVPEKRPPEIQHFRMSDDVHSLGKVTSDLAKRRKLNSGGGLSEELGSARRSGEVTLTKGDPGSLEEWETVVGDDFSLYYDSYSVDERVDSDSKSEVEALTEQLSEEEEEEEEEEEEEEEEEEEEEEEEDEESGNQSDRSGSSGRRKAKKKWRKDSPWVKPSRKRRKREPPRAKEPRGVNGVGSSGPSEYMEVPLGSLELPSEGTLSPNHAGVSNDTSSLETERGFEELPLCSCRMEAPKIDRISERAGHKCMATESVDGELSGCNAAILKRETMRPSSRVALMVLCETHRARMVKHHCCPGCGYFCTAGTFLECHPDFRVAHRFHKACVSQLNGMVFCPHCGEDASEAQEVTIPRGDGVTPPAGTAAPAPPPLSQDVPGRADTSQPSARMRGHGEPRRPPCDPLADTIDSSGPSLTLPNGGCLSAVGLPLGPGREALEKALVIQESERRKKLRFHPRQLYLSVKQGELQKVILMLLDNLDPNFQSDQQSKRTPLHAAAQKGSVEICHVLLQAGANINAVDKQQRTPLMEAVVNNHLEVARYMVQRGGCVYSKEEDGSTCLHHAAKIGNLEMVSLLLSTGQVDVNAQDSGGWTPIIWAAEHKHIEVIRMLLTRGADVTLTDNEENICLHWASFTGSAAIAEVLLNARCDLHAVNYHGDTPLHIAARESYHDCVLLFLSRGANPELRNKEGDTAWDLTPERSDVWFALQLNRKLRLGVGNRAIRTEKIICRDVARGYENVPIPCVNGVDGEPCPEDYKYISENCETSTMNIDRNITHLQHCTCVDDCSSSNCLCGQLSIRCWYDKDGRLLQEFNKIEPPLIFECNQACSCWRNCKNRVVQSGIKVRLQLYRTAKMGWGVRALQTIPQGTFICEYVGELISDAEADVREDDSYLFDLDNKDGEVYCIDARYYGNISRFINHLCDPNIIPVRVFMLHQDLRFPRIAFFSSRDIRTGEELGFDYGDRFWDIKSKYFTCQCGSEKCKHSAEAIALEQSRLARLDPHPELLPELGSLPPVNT
Sequence of SMYD2 (Q9NRG4 whole entry): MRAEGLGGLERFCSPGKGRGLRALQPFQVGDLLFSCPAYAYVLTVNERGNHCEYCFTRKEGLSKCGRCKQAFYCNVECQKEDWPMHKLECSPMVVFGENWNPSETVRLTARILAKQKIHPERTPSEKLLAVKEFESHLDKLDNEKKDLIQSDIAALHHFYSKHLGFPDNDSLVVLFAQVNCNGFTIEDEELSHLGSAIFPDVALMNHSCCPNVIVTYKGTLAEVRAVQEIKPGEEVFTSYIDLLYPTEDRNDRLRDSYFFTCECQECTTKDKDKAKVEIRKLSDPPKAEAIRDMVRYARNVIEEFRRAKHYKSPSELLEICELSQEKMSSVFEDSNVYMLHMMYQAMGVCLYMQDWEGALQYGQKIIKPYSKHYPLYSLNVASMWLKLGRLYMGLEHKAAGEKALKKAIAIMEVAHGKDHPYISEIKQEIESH
Sequence of PRMT6 (Q96LA8 whole entry): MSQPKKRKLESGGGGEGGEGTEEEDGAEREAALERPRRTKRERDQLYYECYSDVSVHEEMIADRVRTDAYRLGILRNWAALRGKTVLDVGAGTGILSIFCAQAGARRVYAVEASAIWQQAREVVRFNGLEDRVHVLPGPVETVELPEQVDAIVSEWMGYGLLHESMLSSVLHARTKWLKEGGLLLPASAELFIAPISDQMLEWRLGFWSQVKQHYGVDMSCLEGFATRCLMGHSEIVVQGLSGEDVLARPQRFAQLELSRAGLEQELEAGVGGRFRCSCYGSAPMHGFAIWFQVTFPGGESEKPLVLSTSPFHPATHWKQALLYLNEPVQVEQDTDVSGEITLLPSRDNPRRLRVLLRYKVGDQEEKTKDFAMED
Sequence of EZH2 (Q15910 whole entry): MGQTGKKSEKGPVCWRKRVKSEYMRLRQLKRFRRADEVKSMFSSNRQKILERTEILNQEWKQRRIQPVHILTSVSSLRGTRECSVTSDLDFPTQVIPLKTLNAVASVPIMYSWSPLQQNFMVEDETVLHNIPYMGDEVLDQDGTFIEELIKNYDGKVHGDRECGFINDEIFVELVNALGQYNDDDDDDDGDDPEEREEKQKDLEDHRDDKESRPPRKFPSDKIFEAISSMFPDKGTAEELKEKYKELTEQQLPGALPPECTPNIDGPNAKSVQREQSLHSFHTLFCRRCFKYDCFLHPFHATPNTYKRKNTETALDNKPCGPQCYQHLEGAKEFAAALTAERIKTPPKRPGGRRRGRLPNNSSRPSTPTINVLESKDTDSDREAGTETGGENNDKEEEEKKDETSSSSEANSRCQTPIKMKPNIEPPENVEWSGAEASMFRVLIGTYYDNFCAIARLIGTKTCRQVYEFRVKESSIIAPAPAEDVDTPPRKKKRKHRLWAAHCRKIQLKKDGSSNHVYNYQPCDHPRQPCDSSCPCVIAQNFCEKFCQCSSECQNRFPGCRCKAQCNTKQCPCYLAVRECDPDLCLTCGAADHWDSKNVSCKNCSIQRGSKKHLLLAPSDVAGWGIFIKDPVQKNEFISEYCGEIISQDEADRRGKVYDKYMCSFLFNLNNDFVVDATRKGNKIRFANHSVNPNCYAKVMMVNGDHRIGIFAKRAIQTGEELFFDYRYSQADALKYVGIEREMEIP
Sequence of EZH1 (Q92800 whole entry): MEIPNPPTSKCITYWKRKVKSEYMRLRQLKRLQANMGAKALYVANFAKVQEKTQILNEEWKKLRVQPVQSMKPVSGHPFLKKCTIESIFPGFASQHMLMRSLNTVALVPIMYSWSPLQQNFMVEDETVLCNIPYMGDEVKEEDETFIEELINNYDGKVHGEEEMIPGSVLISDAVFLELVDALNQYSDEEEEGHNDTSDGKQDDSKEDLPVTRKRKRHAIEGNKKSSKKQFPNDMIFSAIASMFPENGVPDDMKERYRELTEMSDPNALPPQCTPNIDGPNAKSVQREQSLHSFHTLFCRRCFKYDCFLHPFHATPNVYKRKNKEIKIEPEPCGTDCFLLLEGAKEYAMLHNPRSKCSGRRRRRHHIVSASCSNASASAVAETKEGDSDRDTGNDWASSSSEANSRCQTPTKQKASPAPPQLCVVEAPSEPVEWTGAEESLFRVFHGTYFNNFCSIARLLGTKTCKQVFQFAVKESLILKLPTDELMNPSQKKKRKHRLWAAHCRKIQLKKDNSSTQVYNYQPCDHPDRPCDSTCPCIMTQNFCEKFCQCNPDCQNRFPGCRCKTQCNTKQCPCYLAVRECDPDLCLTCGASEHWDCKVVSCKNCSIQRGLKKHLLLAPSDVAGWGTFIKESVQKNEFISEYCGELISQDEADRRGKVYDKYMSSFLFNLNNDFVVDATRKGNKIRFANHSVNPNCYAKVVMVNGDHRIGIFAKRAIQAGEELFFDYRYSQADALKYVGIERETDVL

B1: PTD2 (peptide)
chain: Ac-GV[Nle]RI-NH2
> 200 µM: SMYD2 | EZH1 | EZH2 | G9a | SETDB1 | PRMT6

From article PMC5942779, “Identification of a peptide inhibitor for the histone methyltransferase WHSC1” (PLoS ONE, 2018)
